Our source for the Kd and stoichiometry N values is PMC4695161.

For assay [1], the target named is antizyme inhibitor (Homo sapiens) (UniProt O14977). Nature of the assay: analytical ultracentrifugation. Particulars: cited from earlier work.
For assay [2], the target named is ornithine decarboxylase (Homo sapiens) (UniProt P11926). Nature of the assay: analytical ultracentrifugation. Particulars: cited from earlier work.
The target of assay [3] is human cyclin D1 (CCND1) (human) (UniProt P24385). Nature of the assay: AUC; sedimentation velocity of CCND1 alone at 0.05, 0.1 and 0.3 mg/ml, 30 mM Tris-HCl pH 7.4, 20°C; global fit (SEDPHAT) to monomer-dimer equilibrium; dimer to monomers.
The target in assay [4] is C-terminal AZ peptide AZ(100-228) (human) (UniProt P54368). Nature of the assay: AUC; sedimentation velocity; AZ or AZ peptide at a fixed concentration, three concentrations of CCND1; 30 mM Tris-HCl pH 7.4, 50 mM NaCl; global fit (SEDPHAT) to A+B↔AB hetero-association.
C-terminal AZ peptide AZ(100-228) (human), sequence (P54368 100-228): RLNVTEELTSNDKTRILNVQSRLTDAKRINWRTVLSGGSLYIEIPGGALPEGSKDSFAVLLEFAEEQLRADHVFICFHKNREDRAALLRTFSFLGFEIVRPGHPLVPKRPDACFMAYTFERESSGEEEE

human cyclin D1 (CCND1), sequence (P24385 whole entry): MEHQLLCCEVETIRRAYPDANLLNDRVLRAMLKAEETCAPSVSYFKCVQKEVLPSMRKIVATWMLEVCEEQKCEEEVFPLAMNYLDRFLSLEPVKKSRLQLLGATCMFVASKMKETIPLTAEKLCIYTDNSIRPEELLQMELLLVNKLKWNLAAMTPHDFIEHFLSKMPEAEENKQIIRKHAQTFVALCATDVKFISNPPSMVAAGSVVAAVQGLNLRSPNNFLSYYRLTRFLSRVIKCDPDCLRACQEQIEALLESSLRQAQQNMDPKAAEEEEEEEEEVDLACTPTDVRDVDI
antizyme, sequence (P54368 whole entry): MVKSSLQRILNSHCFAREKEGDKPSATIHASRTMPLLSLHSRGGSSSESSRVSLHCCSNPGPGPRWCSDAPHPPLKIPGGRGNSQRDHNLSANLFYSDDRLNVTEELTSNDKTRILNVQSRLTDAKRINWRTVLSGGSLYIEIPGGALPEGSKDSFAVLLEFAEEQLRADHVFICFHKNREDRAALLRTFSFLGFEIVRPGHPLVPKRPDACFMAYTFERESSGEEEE
ornithine decarboxylase (Homo sapiens), sequence (P11926 whole entry): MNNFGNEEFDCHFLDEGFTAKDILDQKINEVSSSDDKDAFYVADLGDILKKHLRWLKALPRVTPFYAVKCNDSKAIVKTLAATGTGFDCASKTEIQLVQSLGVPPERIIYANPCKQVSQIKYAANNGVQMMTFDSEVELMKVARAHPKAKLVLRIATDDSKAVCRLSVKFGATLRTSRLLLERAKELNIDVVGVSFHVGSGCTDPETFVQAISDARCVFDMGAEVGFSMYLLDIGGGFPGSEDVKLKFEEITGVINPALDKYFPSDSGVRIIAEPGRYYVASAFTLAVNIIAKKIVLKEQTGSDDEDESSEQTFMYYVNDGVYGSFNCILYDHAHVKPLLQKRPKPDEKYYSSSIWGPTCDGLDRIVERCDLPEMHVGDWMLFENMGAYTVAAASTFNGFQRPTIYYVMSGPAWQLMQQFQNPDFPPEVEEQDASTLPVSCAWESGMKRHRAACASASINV
antizyme inhibitor (Homo sapiens), sequence (O14977 whole entry): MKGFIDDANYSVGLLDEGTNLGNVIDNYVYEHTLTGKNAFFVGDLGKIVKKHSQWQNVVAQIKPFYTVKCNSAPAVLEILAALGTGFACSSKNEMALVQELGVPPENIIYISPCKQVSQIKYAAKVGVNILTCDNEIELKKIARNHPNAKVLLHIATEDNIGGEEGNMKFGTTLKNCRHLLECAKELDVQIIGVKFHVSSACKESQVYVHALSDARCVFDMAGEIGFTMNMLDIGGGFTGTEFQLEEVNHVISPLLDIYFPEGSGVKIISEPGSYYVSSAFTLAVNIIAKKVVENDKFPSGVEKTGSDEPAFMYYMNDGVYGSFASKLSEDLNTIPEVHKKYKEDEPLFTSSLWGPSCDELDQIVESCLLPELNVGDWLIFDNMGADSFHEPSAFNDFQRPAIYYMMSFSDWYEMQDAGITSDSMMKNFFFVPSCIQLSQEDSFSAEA

antizyme (from UniProt P54368): the figures for the Kd in assay [1] and in assay [2] were 20 nM and 210 nM, respectively.

In assay [3], “human cyclin D1 (CCND1) (from UniProt P24385 1-295) (natural protein; other documents disagree on this pair)” gave a Kd of 3840 nM and a stoichiometry N of 2.

For “human cyclin D1 (CCND1) (from UniProt P24385 1-295) (natural protein)”, the Kd in assay [4] was 14100 nM.

The Kd is the concentration at which binding is half-saturated. What is called stoichiometry N is a count of units in the complex or per binding partner.
